Data from patent publication US20180326084A1 (Genmab, published 2018).

T1: Homo sapiens AXL-Mus musculus FN1 domain (p33-AXL-mFN1) (human-mouse chimera, UniProt P30530 26-894)
T1 construct: Expressed in HEK293F cells; also called hsAXL-mmFN1; TH1021-mFN1
T1 chain: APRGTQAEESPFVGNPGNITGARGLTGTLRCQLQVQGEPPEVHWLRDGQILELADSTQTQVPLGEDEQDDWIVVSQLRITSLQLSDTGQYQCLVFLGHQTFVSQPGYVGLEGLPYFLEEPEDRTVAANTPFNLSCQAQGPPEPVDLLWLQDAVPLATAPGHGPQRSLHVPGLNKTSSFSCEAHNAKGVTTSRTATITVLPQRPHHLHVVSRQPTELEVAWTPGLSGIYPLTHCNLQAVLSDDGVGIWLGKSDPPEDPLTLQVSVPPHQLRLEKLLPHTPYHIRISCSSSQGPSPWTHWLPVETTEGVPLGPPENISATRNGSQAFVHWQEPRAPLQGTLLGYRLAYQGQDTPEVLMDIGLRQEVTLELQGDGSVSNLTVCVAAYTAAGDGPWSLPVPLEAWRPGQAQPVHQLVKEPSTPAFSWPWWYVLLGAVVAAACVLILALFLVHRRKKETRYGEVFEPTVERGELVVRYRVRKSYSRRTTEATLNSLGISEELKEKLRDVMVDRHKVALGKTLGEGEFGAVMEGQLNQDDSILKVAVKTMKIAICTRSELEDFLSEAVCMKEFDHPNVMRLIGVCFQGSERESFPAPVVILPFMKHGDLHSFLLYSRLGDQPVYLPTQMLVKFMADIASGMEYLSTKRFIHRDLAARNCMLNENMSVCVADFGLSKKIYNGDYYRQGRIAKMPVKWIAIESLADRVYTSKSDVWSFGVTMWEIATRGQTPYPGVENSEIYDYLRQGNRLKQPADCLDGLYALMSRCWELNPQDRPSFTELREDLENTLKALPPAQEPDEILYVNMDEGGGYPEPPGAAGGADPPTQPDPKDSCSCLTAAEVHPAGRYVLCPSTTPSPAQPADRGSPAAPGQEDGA

T2: Homo sapiens AXL-Mus musculus FN2 domain (p33-AXL-mFN2) (human-mouse chimera, UniProt P30530 26-894)
T2 construct: Expressed in HEK293F cells; also called hsAXL-mmFN2; TH1021-mFN2
T2 chain: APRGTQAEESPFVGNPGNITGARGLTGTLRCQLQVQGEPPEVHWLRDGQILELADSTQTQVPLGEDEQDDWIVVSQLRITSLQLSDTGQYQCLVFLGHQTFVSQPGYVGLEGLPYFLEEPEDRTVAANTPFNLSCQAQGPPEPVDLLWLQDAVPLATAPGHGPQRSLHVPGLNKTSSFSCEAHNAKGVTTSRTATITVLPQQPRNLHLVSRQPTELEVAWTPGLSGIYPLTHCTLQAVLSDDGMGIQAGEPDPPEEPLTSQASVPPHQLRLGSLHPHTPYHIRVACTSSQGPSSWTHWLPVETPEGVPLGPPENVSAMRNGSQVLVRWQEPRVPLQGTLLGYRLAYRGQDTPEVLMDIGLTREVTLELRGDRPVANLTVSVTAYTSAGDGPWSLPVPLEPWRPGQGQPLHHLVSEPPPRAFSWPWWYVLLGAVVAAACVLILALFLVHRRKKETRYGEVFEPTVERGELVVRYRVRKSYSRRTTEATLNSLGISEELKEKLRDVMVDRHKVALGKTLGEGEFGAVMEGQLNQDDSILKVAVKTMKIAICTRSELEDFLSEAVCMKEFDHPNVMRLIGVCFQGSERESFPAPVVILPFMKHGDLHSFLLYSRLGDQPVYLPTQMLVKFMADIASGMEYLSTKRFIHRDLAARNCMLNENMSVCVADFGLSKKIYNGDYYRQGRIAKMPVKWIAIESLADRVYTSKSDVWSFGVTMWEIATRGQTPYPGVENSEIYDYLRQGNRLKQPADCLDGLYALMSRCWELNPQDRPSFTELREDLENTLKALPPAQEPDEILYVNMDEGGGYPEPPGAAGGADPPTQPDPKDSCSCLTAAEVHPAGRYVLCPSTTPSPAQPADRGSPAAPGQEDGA

T3: Homo sapiens AXL-Mus musculus Ig2 domain (p33-AXL-mIg2) (human-mouse chimera, UniProt P30530 26-894)
T3 construct: Expressed in HEK293F cells; also called hsAXL-mmIg2; TH1021-mIg2
T3 chain: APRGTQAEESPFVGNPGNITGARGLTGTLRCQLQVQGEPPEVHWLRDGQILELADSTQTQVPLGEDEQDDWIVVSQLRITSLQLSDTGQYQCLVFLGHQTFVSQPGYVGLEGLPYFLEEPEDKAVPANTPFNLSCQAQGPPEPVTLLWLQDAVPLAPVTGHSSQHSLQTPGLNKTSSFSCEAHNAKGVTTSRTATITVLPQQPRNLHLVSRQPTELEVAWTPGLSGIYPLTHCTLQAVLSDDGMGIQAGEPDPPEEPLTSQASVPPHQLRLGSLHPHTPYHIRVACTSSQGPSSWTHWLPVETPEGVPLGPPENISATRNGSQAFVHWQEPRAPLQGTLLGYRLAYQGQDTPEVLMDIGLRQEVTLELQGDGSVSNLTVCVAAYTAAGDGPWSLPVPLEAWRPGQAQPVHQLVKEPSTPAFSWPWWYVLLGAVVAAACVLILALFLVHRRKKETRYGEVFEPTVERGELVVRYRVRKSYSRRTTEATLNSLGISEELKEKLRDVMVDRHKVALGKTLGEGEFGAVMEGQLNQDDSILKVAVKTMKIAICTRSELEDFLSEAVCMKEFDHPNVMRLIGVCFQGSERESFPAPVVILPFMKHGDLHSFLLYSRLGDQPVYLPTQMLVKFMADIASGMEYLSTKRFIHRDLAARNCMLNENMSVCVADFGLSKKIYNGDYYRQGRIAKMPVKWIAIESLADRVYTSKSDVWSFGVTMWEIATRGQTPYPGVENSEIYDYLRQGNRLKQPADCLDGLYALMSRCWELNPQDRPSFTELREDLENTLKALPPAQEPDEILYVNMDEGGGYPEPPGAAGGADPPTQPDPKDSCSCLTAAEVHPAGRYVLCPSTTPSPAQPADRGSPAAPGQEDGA


What was measured:
[1] = biological target: T1, Homo sapiens AXL-Mus musculus FN1 …; test: flow cytometry, 1 µg/mL antibody, transfected HEK293F cells
[2] = biological target: T2, Homo sapiens AXL-Mus musculus FN2 …; test: as above
human AXL (full length) = biological target: T4, human AXL (full length) (human, UniProt P30530 26-894); test: FMAT screening assay, HEK-293F cells transiently expressing human AXL
T4 construct: also called TH1021-AXL; TH1021-hAXL

[3] = biological target: T3, Homo sapiens AXL-Mus musculus Ig2 …; test: flow cytometry, 1 µg/mL antibody, transfected HEK293F cells

Row | Binder | binding result [1] | binding result [2] | EC50 (human AXL (full length)) [µg/mL] | Maximal binding (Arbitrary units) (human AXL (full length)) [arbitrary units] | binding result [3]
1 | IgG1-AXL-148 (antibody, V domains shown) VH: EVQLLESGGGLVQPGGSLRLSCAASGFTFSSYAMTWVRQAPGKGLEWVSAISISGGSTFYADSVKGRFTISRDNSKNTLYLQMNSLRAEDTAVYYCRGYSGYVYDAFDFWGQGTMVTVSS VL: DIQMTQSPSSLSASVGDRVTITCRASQGISNWLAWYQQKPEKAPKSLIYAASSLQSGVPSRFSGSGSGTDFTLTISSLQPEDFATYYCQQYNSYPLTFGGGTKVEIK | binds | binds | 0.0036 | 3500 | 
2 | IgG1-AXL-726 (antibody, V domains shown) VH: QVQLQQWGAGLLKPSETLSLTCAIDGGSFSGYYWSWIRQPPGKGLEWIGEISHSGRTNYNPSLKSRVTISIDTSKNQFSLKLSSVAAADTAVYYCARFITMIRGAIITHFDYWGQGALVTVSS VL: DIQMTQSPSSLSASVGDRVTITCRASQGISSWLAWYQQKPEKAPKSLIYAASSLQSGVPSRFSGSGSGTDFTLTISSLQPEDFATYYCQQYHSYPYTFGQGTKLEIK | binds |  | 0.0471 | 3150 | binds
3 | IgG1-AXL-733 (antibody, V domains shown) VH: QVQLVESGGGVVQPGRSLRLSCAASGFSFSTYAMHWVRQAPGKGLEWVAVISYDGDNKYSADSVKGRFTISRDNSKNTLYLQMNSLRAEDTAVYYCARGRKLGIDAFDIWGQGTMVTVSS VL: AIQLTQSPSSLSASVGDRVTITCRASQGISSALAWYQQKPGKAPKLLIYDASSLESGVPSRFSGSGSGTDFTLTISGLQPEDFATYYCQQFNSYPFTFGPGTKVDIK |  | binds |  |  | binds
4 | IgG1-AXL-183 (antibody, V domains shown) VH: QVQLQQWGAGLLKPSETLSLTCAVYGGSFSGYYWSWIRQPPGKGLEWIGEINQSGSTNYNPSLKSRVTISVDTSKNQFSLKLSSVTAADTSVYYCASGNWDHFFDYWGQGTLVTVSS VL: DIQMTQSPSSVSASVGDRVTITCRASQGISSWLAWYQHKPGKAPKLLIYATSSLQSGVTSRFSGSGSGTDFTLTISSLQPEDFATYYCQQAKSFPWTFGQGTKVEIK | binds | binds |  |  | binds
